Article PMC3792407, “Overexpression of chloroplast NADPH-dependent thioredoxin reductase in Arabidopsis enhances leaf growth and elucidates in vivo function of reductase and thioredoxin domains” (Frontiers in Plant Science, 2013)

B1: NADPH-dependent thioredoxin reductase C (NTRC), endogenous in wild-type Arabidopsis leaves (enzyme, UniProt O22229 68-529, looked up)
chain: ATANSPSSSSSGGEIIENVVIIGSGPAGYTAAIYAARANLKPVVFEGYQMGGVPGGQLMTTTEVENFPGFPDGITGPDLMEKMRKQAERWGAELYPEDVESLSVTTAPFTVQTSERKVKCHSIIYATGATARRLRLPREEEFWSRGISACAICDGASPLFKGQVLAVVGGGDTATEEALYLTKYARHVHLLVRRDQLRASKAMQDRVINNPNITVHYNTETVDVLSNTKGQMSGILLRRLDTGEETELEAKGLFYGIGHSPNSQLLEGQVELDSSGYVLVREGTSNTSVEGVFAAGDVQDHEWRQAVTAAGSGCIAALSAERYLTSNNLLVEFHQPQTEEAKKEFTQRDVQEKFDITLTKHKGQYALRKLYHESPRVILVLYTSPTCGPCRTLKPILNKVVDEYNHDVHFVEIDIEEDQEIAEAAGIMGTPCVQFFKNKEMLRTISGVKMKKEYREFIEANK
notes: NTRC of Arabidopsis thaliana (At2g41680), mature chloroplast protein without the putative transit peptide of 67 amino acids (ChloroP); calculated mass of mature NTRC 50890 Da, band of about 50 kDa; printed residue numbers count on the precursor with the transit peptide; The cleavage site of the transit peptide is only a ChloroP prediction (67 amino acids); also called plastid-localized …
B2: full-length NTRC with C454S/C457S in the TRXd active site (OE-SGPS) (enzyme, Arabidopsis thaliana, UniProt O22229 68-529, looked up)
chain: ATANSPSSSSSGGEIIENVVIIGSGPAGYTAAIYAARANLKPVVFEGYQMGGVPGGQLMTTTEVENFPGFPDGITGPDLMEKMRKQAERWGAELYPEDVESLSVTTAPFTVQTSERKVKCHSIIYATGATARRLRLPREEEFWSRGISACAICDGASPLFKGQVLAVVGGGDTATEEALYLTKYARHVHLLVRRDQLRASKAMQDRVINNPNITVHYNTETVDVLSNTKGQMSGILLRRLDTGEETELEAKGLFYGIGHSPNSQLLEGQVELDSSGYVLVREGTSNTSVEGVFAAGDVQDHEWRQAVTAAGSGCIAALSAERYLTSNNLLVEFHQPQTEEAKKEFTQRDVQEKFDITLTKHKGQYALRKLYHESPRVILVLYTSPTSGPSRTLKPILNKVVDEYNHDVHFVEIDIEEDQEIAEAAGIMGTPCVQFFKNKEMLRTISGVKMKKEYREFIEANK
notes: signal peptide in the construct (chloroplast transit peptide, putative 67 amino acids, ChloroP); full-length NTRC of Arabidopsis thaliana (At2g41680) with both redox cysteines of the TRXd motif CGPC changed to serine; in the leaf extract it runs as the mature protein of about 50 kDa; also called NTRC-SGPS; source: transgenic Arabidopsis (ntrc knockout background, CaMV 35S promoter, pGWR8), …
B3: full-length NTRC with C217S/C220S in the NTRd active site (OE-SAIS) (enzyme, Arabidopsis thaliana, UniProt O22229 68-529, looked up)
chain: ATANSPSSSSSGGEIIENVVIIGSGPAGYTAAIYAARANLKPVVFEGYQMGGVPGGQLMTTTEVENFPGFPDGITGPDLMEKMRKQAERWGAELYPEDVESLSVTTAPFTVQTSERKVKCHSIIYATGATARRLRLPREEEFWSRGISASAISDGASPLFKGQVLAVVGGGDTATEEALYLTKYARHVHLLVRRDQLRASKAMQDRVINNPNITVHYNTETVDVLSNTKGQMSGILLRRLDTGEETELEAKGLFYGIGHSPNSQLLEGQVELDSSGYVLVREGTSNTSVEGVFAAGDVQDHEWRQAVTAAGSGCIAALSAERYLTSNNLLVEFHQPQTEEAKKEFTQRDVQEKFDITLTKHKGQYALRKLYHESPRVILVLYTSPTCGPCRTLKPILNKVVDEYNHDVHFVEIDIEEDQEIAEAAGIMGTPCVQFFKNKEMLRTISGVKMKKEYREFIEANK
notes: signal peptide in the construct (chloroplast transit peptide, putative 67 amino acids, ChloroP); full-length NTRC of Arabidopsis thaliana (At2g41680) with both redox cysteines of the NTRd motif CAIC changed to serine; in the leaf extract it runs as the mature protein of about 50 kDa; source: transgenic Arabidopsis (ntrc knockout background, CaMV 35S promoter, pGWR8), soluble leaf extract

Target: the molecule itself
Assay: SDS-PAGE of unheated samples with Western blot; soluble leaf proteins extracted in 50 mM HEPES, 5 mM NaCl, 10 mM MgCl2 with or without 2 mM DTT; solubilised in SDS buffer with or without mercaptoethanol and kept on ice (0°C), not heated; 10% acrylamide gel; blot with anti-NTRC or anti-NTRB antibody

Stoichiometry N, 2:
B1, B2, B3
